Tests used:
Test in all cases: UV-vis
Conditions in all cases: not stated (1 mM each of sodium phosphate, sodium citrate and sodium borate; 0.1 mM EDTA; no added salt mentioned), Polybuffer: 1 mM each of sodium phosphate, with 0.1 mM EDTA. Starting pH 9.3, titrated with 25 mM HCl., Reduced (DTT-treated, desalted) active-site dithiol form, folded, 10-25 µM protein, the oxidised (diamide) protein served as reference
Cys12 [1] = target: Cys12 (UniProt position 12, YTQPDCPPCVI)
Cys15 = Cys15 (UniProt position 15, PDCPPCVIVKE)
Cys12 [2] = target: Cys12 (UniProt position 12, YAQPDCPPCVI)

Substance | pKa (Cys12 [1]) | pKa (Cys15) | pKa (Cys12 [2])
Thioredoxin BC3987 (NrdH/Cp9-like small thioredoxin, C-P-P-C active site) (Bacillus cereus ATCC 14579) | 7.2 | 5.1 | 
Thioredoxin BC3987 T8A mutant (Bacillus cereus ATCC 14579; T8A) |  |  | 7.2

— article PMC3720550
